This is an account of results in a protein production outcome set (Wang et al. 2014).

The data set in a line: label from the status in PepcDB records.
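Also: failed if final PepcDB status was selected cloned or expressed and not failed if soluble or beyond.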

For the sequence “MLAILYDRIRPDERMLFERAEALGLPYKKVYVPALPMVLGERPKELEGVTVALERCVSQSRGLAAARYLTALGIPVVNRPEVIEACGDKWATSVALAKAGLPQPKTALATDREEALRLMEAFGYPVVLKPVIGSWGRLLAKVTDRAAAEALLEHKEVLGGFQHQLFYIQEYVEKPGRDIRVFVVGERAIAAIYRRSAHWITNTARGGQAENCPLTEEVARLSVKAAEAVGGGVVAVDLFESERGLLVNEVNHTMEFKNSVHTTGVDIPGEILKYAWSLAS”, the protein production result is “not failed”.

For the sequence “MLANQIKYVILHLTQSIIEYSMANLNCIKAVLAEKGIMSKWLAKTLKKDPATVSKWCNNHSQPDLYTLARIAEVLDVDIHKLICHTKEE”, the protein production entry was “failed”.

“MLAPGMGEWVYKANLFLFGEFAYYYPFFLFILNYVYYKRNYKLANFTRRELFGIGFAFFSSLLLFAVFYPNSGYILELAYAIFSTILGHTGSGIFALLLLLFSLVLLFPKFAKEILKIELDFTYLLKVEQAFKSLLMRVFGGENEKEDVGKSEPIVPKLNILQDSIYGNLQINKKGETNNLEQIIKDSNINASKNSITTAKENFEKLKNQILDETIEIDKQSLKESRSFVHEHSQQVRNFAQKASKMSISLDEDFNFISEEEVDMIPERFLKPKKLEDIKQIDTNKNLDEPSYKRKNIEIPVSNQEVKPKIFTKELELRENLIKKEKLEQEYKAYQNEILENKVKQEIKKLEEYDAINSSDIIEGNKYSFNSPKTIKTETEESDKINENKNLDKADNIFEFAPIVEELNHPYIEPTPIKNINEIVIEEKNTLDFIQNTETKIDNEKTNDQEIKLQKAVLAKEIAINQALLREIEQGEIEKPKDFTLPPLDFLANPKEHKQEINESEIDKKIYNLLEKLRRFKIGGDVISTYVGPVVTTFEFRPSADVKVSRILNLQDDLTMALMAKSIRIQAPIPGKDVVGIEVPNDEIQTIYLREILQSEVFKNAKSPLTIALGKDIVGNAFVTDLKKLPHLLIAGTTGSGKSVGINSMLLSLLYRNSPKTLRLMMIDPKMLEFSIYNDIPHLLTPVITDPKKAVNALSNMVAEMERRYRLMADAKTKNIENYNEKMKELGGEKLPFIVVIIDELADLMMTAGKDVEFYIGRLAQMARASGIHLIVATQRPSVDVVTGLIKANLPSRISYKVGQKIDSKVILDAMGAESLLGRGDCLFTPPGTSSIVRLHAPFASEFEIEKIVDFLKDQQSVEYDESFLKDQQSVGVTTNESFDGEADELYEEAKRVILEDGKTSISYLQRRLKIGYNRSANIIEQLTQNGILSEPDAKGQREIL”: the protein production entry is “failed”.

“MLARVRRVLALILIVLAGLVALLSPAFPALSHYGTLPRHGDKPLNVLLAGVDVNYDEQAPVWPYPAQPEDYSGRTDTIVLTQVRPDGTVKLLSIPRDSWVPIAGWSGGWGKINSANVHGGPDMLLNTVQALTGVHPDGYALLSLNALRAVTEAVGGVTIDVPQRMKYDDNAGHLHIDLQPGRQRLSGEQAEGFLRFRKDNMGDIGRVGRQQQFLTALIAEIRRPANVWKLPKVIAALDANAKTNLTRAQIAELLGAAQRGPQVSTFTVPGNFGMVGAASVWNVDTPRLDALLAEQFRDPGDPHGLRVLVLNADAPDGSARRLKAKLEALGYHNVSTANEQKPWPVTTVSGPATPAAALLRDLGYGQLDNAPSLPGSELTIRLGRDTPAQ”: the protein production result is on record as “failed”.

Take “MLAVGIVGLPNVGKSTLFNALTRANALAANYPFATIDKNVGVVPLEDERLYALQRTFAKGERVPPVVPTHVEFVDIAGLVKGAHKGEGLGNQFLAHIREVAAIAHVLRCFPDPDVVHVMGRVDPLEDAEVVETELLLADLATLERRLERLRKEARADRERLPLLEAAEGLYVHLQEGKPARTFPPSEAVARFLKETPLLTAKPVIYVANVAEEDLPDGRGNPQVEAVRRKALEEGAEVVVVSARLEAELAELSGEEARELLAAYGLQESGLQRLARAGYRALDLLTFFTAGEKEVRAWTVRRGTKAPRAAGEIHSDMERGFIRAEVIPWDKLVEAGGWARAKERGWVRLEGKDYEVQDGDVIYVLFNA”: the protein production result was “not failed”.

Turning to “MLAVSFIAGVILIGLYGVDSSERYIAVSELLANPQDYSGQNINAMGVVEDRSLHKDPGVTSFDLKDENDENLKIHVNYVGNLPSNLAEGKQVTIRGSMISESTFEANKIVTGCPSKYTELEHHHHHH”, the protein production result is on record as “failed”.

For the sequence “MLCARTDNHQGTGNVVTSAHMTRANDDDAGAAGIGAVAHMTTVDDNYTGHVERGKAARRFLPGATILKASVGPMDNNAYLVTCSATGETLLIDAANDAEVLIDLVRRYAPKLALIVTSHQHFDHWQALQAVAAATGAPTAAHPIDADPLPVKPDRLLTHGDSVRIGELTFDVIHLRGHTPGSIALALGGPVTGGVTQLFTGDCLFPGGVGKTWQPADFTQLLDDVTTRVFDVYADSTVIYPGHGDDTELGAERPSLSEWRARGW”, the protein production entry is “failed”.

With “MLCCMRRTKQVEKNDDDQKIEQDGIKPEDKAHKAATKIQASFRGHITRKKLKGEKKDDVQAAEAEANKKDEAPVADGVEKKGEGTTTAEAAPATGSKPDEPGKAGETPSEEKKGEGDAATEQAAPQAPASSEEKAGSAETESATKASTDNSPSSKAEDAPAKEEPKQADVPAAVTAAAATTPAAEDAAAKATAQPPTETGESSQAEENIEAVDETKPKESARQDEGKEEEPEADQEHA”, the protein production entry was “failed”.

Consider “MLCCPDPRRRGQHNNRRRNAMPKLHESRIHDLRPTQLTVGMIEVQAKKTHLAAMAPADQQAFMQAHPIPAVLGPGGQLYITDHHHLGRAALDAGVITGYFMVEADLSQHSLDDFWKAMDQNLWVHPLDEHGVRHYYASIPKHLEKLVDDPYRSLAGYVRDAGGYDKTPTAFAEFVWADFFRRSIPIEDLLADFQAAVHAALPLAKSKFAKALPGYNGKLEHHHHHH”, for which the protein production result is on record as “failed”.

For “MLDANKLQQAVDQAYTQFHSLNGGQNADYIPFLANVPGQLAAVAIVTCDGNVYSAGDSDYRFALESISKVCTLALALEDVGPQAVQDKIGADPTGLPFNSVIALELHGGKPLSPLVNAGAIATTSLINAENVEQRWQRILHIQQQLAGEQVALSDEVNQSEQTTNFHNRAIAWLLYSAGYLYCDAMEACDVYTRQCSTLLNTIELATLGATLAAGGVNPLTHKRVLQADNVPYILAEMMMEGLYGRSGDWAYRVGLPGKSGVGGGILAVVPGVMGIAAFSPPLDEDGNSVRGQKMVASVAKQLGYNVFKG”, the protein production entry is on record as “not failed”.

Consider “MLDGWQEIEADQIKRMQSALWHLLGNAIAYLSLFVIELVLATIGHSQSLHADAFNNFAGIVSSGLLSLGIWGGIHNHQSHQSKVTALDGWEAERRNRLMRFRLQDLFTLMSGVIMLVMAVQVIVSGVSNLFKSHTVQAVSGVTVWGAAIASIVMLVVWYFNRRGGQQLDNSTLLAAAKDSLSDALTSIGTLISLSGVLLFKFAWLDSVASIVIGFFIFAAGLQIFRDSGLQLINYSDPQVEKNYINTIQQIDGVNQVNAIDVQYSGSLVALSLVIAVSPRMTVAASFQLSERIEQVMRNQYGIIDTKVMFMPQT”, for which the protein production entry is “failed”.

For “MLDKGGGRGKLSSPERFREWTRKTMAKQDELVFVPLGGVGEIGMNLALYGYGPESKRQWIMVDCGVTFAGPDLPGVDLVLPDISYIAEQKKNLKGIIITHAHEDHYGAMNDLWPGLNVPVYASPFTAGMLEAKRAYEGTRAEIPVTIFKAGDRINVGPFEIEAVGVNHSIPEPMSLIIRTPLGNVIHTGDWKIDEAPSLGPLTDEARFRAIGEEGVLALMCDSTNALRDGVSPSEHEVSEGLRQIIESAEGRVAVTTFSSNVGRIRSIAQAAEAAGREVLLLGSSLKRVVNVSQDLGIMEGIKPFLAEDEYGYIPRDRVVVILTGSQGEPRAALAKLSRDEMRNVALASGDTVVFSSRAIPGNEKAIIEIKNGLIEQGVHIVTDNEALVHVSGHPRRNELLRMYEWTKPQILVPVHGEAAHLVAQKELAEQAGISQVPKVRNGNVLRLAPGPAEVINDVPHGRVFKDGNLVGDMDEMGISNRRKLSFAGHVAVNVVLDSRYDFLGDPDVVPFGLPEFDDEDEAMEDTLYDAVLGAVESIPRARRKDLALLRESVRRAVRAAANQSWGKKPIVTVFVTKV”, the protein production result is recorded as “failed”.

As for “MLDLKSYREKELASYDLDVELFNEFNFSVYNVMPLRKAFLISTDKGEKILKKIDYTIEEFKFVLAAVNYIKNENEFNRIIDFNKTQSGEYYCIKNGDLYCVMDMIEGKECEFSNPVDLSISSFGLGQLHSASEGFRYSKIASKNICGKMIKGFKRKKEEVNFLKKMVNLYESLNEFDEIFIKNVDYYLEQIDKSIDIMNKSQYYKLCSEEDKIVLCHHDLAHHNIIIKDEEAYFIDFDYAIIDLKVHDLSNIISKAAKVFNYSIDNSKIIISNYCKSNTLSKNEMEVLFGMLSFPEDFYEIVKSYYTKRKDWSNEEFINKMKRKMANEENRVEFLKNFKEDLKI”, the protein production result is “failed”.

As to “MLDLLVVAPHPDDGELGCGGTLARAKAEGLSTGILDLTRGEMGSKGTPEEREKEVAEASRILGLDFRGNLGFPDGGLADVPEQRLKLAQALRRLRPRVVFAPLEADRHPDHTAASRLAVAAVHLAGLRKAPLEGEPFRVERLFFYPGNHPFAPSFLVKISAFIDQWEAAVLAYRSQFTGEAASETVGPKGVEARKAMRRYWGNYLGVDYAEPFVSPLPVLYVPWSRA”, the protein production result is listed as “not failed”.

Take “MLDLQMKTAVIAVYKNAAFLEENVRLLQKEGFDVIVAADEPEESVREIIEKYSLRATVSERRRGKWRALNDAARIADGEELLFLDSDTIIKNLTGLNGADVVEVVKEVEGKGLLEKLVAVDYLVMAMCAKLASKFGSCLGVNGAAFLIKRRAFEELGGFRCKVNEDTELGIRAALGGYRFAVCGRAVTSVPKSIGEWFRQRERWSVGGTEVFVENLSAIIRKPRLWVPYLVLFYPAIFGLVISLFFTENYIAKLLYLVLPFLALISPKLASIAILAVYEMENVRNLVAGVASFVAWSGLILLASKKLGYRVDMKVLPIYYFIYSPLWTVICLISLVRVAVARVTGRKIELKDWVV”: the protein production result was “failed”.

For the sequence “MLDPFSEKAKELLKEFGSMNEFLQAIPSLVDIEEVMNRLKFAKESEISEDILNIEDIRDLASFYAQIGALAYSPYGLELELVKKANLRIYTERIRRRRKIRSDEIGIEVKIAVEFPENDIKTLEKVYGGLPEYIVSLREFLDLVPDEKLSSYYVYDGNVYLRKDDLLKVWSKAFERNVEKAVNIIYEIRDELPEFYRRLAGEIRSFAEKEFSDKFREVQAGELKHHLFPPCVKNALRGVPQGMRNYAITVLLTSFLSYARICPNPPRRNVKIRDCIKDMRVITEEILPIIIEAGNRCSPPLFEDQPNEIKNIWYHLGFGYTANPTLEDSGNSTWYFPPNCDKIKANAPQLCTPDKHCRYIRNPLTYYLRRLYLEEKRRAKHADEGSDKGGKERILQLEHHHHHH”, the protein production result was “failed”.

Turning to “MLDSRQAVFFRFFFGVLPQSGRGQVMTELARTIVAGVGGADNIVSLMHCATRLRFKLKDESKAQAEVLKKTPGIIMVVESGGQFQVVIGNHVADVFLAVNSVAGLGEKAQQAPENDDKGNLLNRFVYVISGIFTPLIGLMAATGILKGMLALALTFQWTTEQSGTYLILFSASDALFWFFPIILGYTAGKRFSGNPFTAMVIGGALVHPLILTAFENGQKVDALGLDFLGIPVTLLNYSSSVIPIIFSAWLCSILERRLNAWLPSAIKNFFTPLLCLMVITPITFLLVGPLSTWISELIAAGYLWLYQAVPAFAGAVMGGFWQIFVMFGLHWGLIPLIINNFTVLGYDTMIPLLMPAIMAQVGAALGVFLCERDAQKKVVAGSAALTGLFGITEPAVYGVNLPRKYPFVIACISGALGATIIGYAQTKVYSFGLPGIFTFMQTIPSTGIDFTVWASVIGGVIAIGCAFVGTVMLHFITAKRQSAQVAQQEKTPEVITPEQGGICSPMTGEIVPLIHVADTTFASGLLGKGIAIMPSVGEVRSPVAGRIASLFATLHAIGIESDDGVEILIHVGIDTVKLDGKFFSAHVNVGDKVNTGDRLISFDIPAIREAGFDLTTPVLISNSDDFTDVLPHGTAQINAGEPLLSIIR”, the protein production result is given as “failed”.
